# Test results taken from a protein production outcome set (Wang et al. 2014).
# Assay: label from the status in PepcDB records
row,Sequence,protein production
1,MIDEPTGLYNRLRLQEDVSLRLQRDGALTVIAADLLPLALLNTIIRTLGYPFSNDLMLEARDRIRAELPDFTLYKISPTRFGLLLPRQQQEETESVCLRLLRAFESPVVCRGIPIKANVGLGVLPLADDTLDGDQDWLRLVVSAADDARDRGVGWARYNPPLDQAQQRLEHHHHHH,not failed
2,MIDGQIRLGHSMPWGMVGGGQGSQIGYIHRSAALRDGSFQLVAGAFDLDPERGRQFGQRLGVSAQRCYPDYRAMFEAEARRPDGIRAVSIATPNNTHFDICRAALHAGLHVVCEKPLCFTTAEAEALQRLAGEQRKIVGVTYGYAGHQLIEHAREMIVRGDLGEIRIVQMQFSHGFHSEGVEAANPAARWRMDPTFAGPSYVLGDIGTHPLYLSEVMLPGLKIARLLCSRQSFVKTRAPLEDNAFTIMEYQGGAIGYAWSCAVNAGSMHGQKIRVIGSKASLEWWDEHPNQLRYEVQGQPAQVLDRGMGYLHPAALHDDRIGAGHPEGLFEAWSNLYYRFALAMDATDRDDAAALRGIRYPDIHAGVEGVRWVENCVRSADAGGVWVDYR,failed
3,MIDVIQSLGIDLHFRQEIEQTLHMIYKEGLQFNGDLHEIALRFRLLRQEGHYVQEIIFKNILDKKGGFKDVVKNDVKGLTELFEASELRVEGEETLDGAREFTYSRLNELCSGRESHQKQEIMKSLAQPRHKTVRGLTSKRFTSMIKIAGQEDPEWLQSLLRVAEIDSIRLKSLTQGEMSQTFKWWTELGLEKDVEKARSQPLKWHTWSMKILQDPTLTEQRLDLTKPISLVYVIDDIFDVYGELEELTIFTRVVERWDHKGLKTLPKYMRVCFEALDMITTEISMKIYKSHGWNPTYALRQSWASLCKAFLVEAKWFNSGYLPTTEEYMKNGVVSSGVHLVMLHAYILLGEELTKEKVELIESNPGIVSSAATILRLWDDLGSAKDENQDGTDGSYVECYLNEYKGSTVDEARTHVAQKISRAWKRLNRECLNPCPFSRSFSKACLNIARTVPLMYSYDDDQRLPDEYLKSLM,failed
4,MIEEYLLRALLASLMVSTLLGLLSPLINVKGVAFLTHATFHALLFGAVLGMILGLIMGDLSLIFWISLLIAIIVVIGIAEMEIRGYSSDTAVGTMAGIIAGLTVLGFGILYKVMASRPYFALSESIVSYLTGEIFLITFDDLTLLVIGGFLVFTIMVIFYRDFLYLSFDPEGLESHGGNVRLYLMLLYFLVGAVGGLIVKTVGLITLQVLAVLPGAIALTISRGIREFVGISLGLTLAIQVSSTFLGYYFNIPPSGLATIFLGTIYGVLALRRKII,failed
5,MIEFDNLTYLHGKPQGTGLLKANPEDFVVVEDLGFEPDGEGEHILVRILKNGCNTRFVADALAKFLKIHAREVSFAGQKDKHAVTEQWLCARVPGKEMPDLSAFQLEGCQVLEYARHKRKLRLGALKGNAFTLVLREVSNRDDVEQRLIDICVKGVPNYFGAQRFGIGGSNLQGAQRWAQTNTPVRDRNKRSFWLSAARSALFNQIVAERLKKADVNQVVDGDALQLAGRGSWFVATTEELAELQRRVNDKELMITAALPGSGEWGTQREALAFEQAAVAAETELQALLVREKVEAARRAMLLYPQQLSWNWWDDVTVEIRFWLPAGSFATSVVRELINTTGDYAHIAE,not failed
6,MIEFITPRTFLFSTQTVVFSVLLFVFYIFYRTFSRKYVKYWLMSIGALNFSYLIKSFVPYSSRNFSSDSWQILAELLLQIFQYSFLIFLIFGVYIAKNNKELSKEILSGGIGAIIILSVISTMFFAFDPSQAFNHFYLTISLPSFIFGCTFLSLACYLLFDKKSYFSSQVLMYFSAIFGLRYLMHSFISIVALTEPWFRQLELFLLYFDVAAHSILGFTLLIWMQGAERFATLSAISRAQYLGKHDSLTGALNREQVMAKLSDKMQELTHANKINKNQMKLAVFLIDIKQFKFINDTYGLKVGDFILGEIASRLNHSVFIPQAVGRLSGDSFMFVIEFEQISHVDRAVNHIHELIERCFRYEQQEITIQGSVGYCFYPDDADKSEDLLQKSNLALHHAETNNIPSVAFEEGMQAQGRHLVLMEKQLRSAIANDEFVLYYQPQLNLFTNKLEGVEALVRWQHPEKGLLSPGDFLTELETLGMHNEFDNYILVKACQASERWFKLYQRRVAIAVNITAVEFQNEQLVTNIQMLLHKYGIPSKYIELEITENVVMTDITRAMDSIVKLQSMGIKVSIDDFGTGYSSLAYLRDLPIDKIKIDRSFINEVAINDSDLTIVKSMVDLSHGLGKRVLAEGVETIEQLNLLRHLGCDAVQGYFISKPLPESKLVRYLKKK,failed
7,MIEIRKASTHDATAIQTLLTQLGYPQSLEFIEKKIRLFESDERQFIFVADIDHKLAGFLSLTMIPQIALEGDFARIAYVCVDQQFRGKRIGQTLVAYAEQIAKSWGCNRMELHSGDHRKQAHEFYLGQNYEDAPKYFRKFL,failed
8,MIEKILLAVSGLGHAEEMLKTLKEVPSIQSAKVTVLHVVPSQATSSAMTDKWEEGGKILANAIQALNLDPSQVSSILRQGDPKDVVCQVADEIDADLIIMGSRGLKRLQSILSNSVSQYVFQLSSRPMLLVKDDIYVKRIKRVMVAMDNSDAAKHCLNLALFLLRGIVGSQLILANVTTDLRGKTSEVSEISPDKNPVLASAVAEAQRYGIQTRCFTSSGKPGEEICRLADELNVDLLLLGSPDRRPSVAKNFVDIDRLIGASLSDYVRVNASCPVLLARTTG,failed
9,MIEKVYEFKRDAKTKVVEKLVNTEHVQINHIVLPRGEQMPKHYSNSYVHLIIIKGEMTLTLEDQEPHNYKEGNIVYVPFNVKMLIQNINSDILEFFVVKAPHPKKLNAPEDPIKCE,not failed
10,MIELDYLTIAFGGAIGAVLRYLVSRTINSLLPFSYIPLGTIIVNSVGSFFLSFLMFAAIEKVPLSKEAILFFGTGLLGAFTTFSTFTYETLSLIEESPARGVAYALANLLFAFTCAYFGMILGRGKV,failed
11,MIENEFGEVSVDDQLIGDRATQIKTLTNGCICCSRSNELEDALLDLLDNLDKGNIQFDRLVIECTGMADPGPIIQTFFSHEVLCQRYLLDGVIALVDAVHADEQMNQFTIAQSQVGYADRILLTKTDVAGEAEKLHERLARINARAPVYTVTHGDIDLGLLFNTNGFMLEENVVSTKPRFHFIADKQNDISSIVVELDYPVDISEVSRVMENLLLESADKLLRYKGMLWIDGEPNRLLFQGVQRLYSADWDRPWGDEKPHSTMVFIGIQLPEEEIRAAFAGLRK,not failed
12,MIEPSKITVEQWLNRWLTDYAKPHLRQSTWESYETVLRLHVIPTLGSIPLKKLQPADIQRLYASKLESGLSPTRVRYIHVVLHEAMSQARESGLLLQNPTEAAKPPRHPKKKVQPLEHHHHHH,not failed
13,MIEQPYPSVADTDAAPPTAQGKIDQYFQISARGSTQRREVVAGITTFMAMVYAVFVVPGMLGKAGFDTSAVFVAVCLTTAFGSLLMGLWAKLPIAIGCAISLTAFMAFGLVLGQHLSPAVALGAVFLMGVVFTAISVTGVRTWILRNLPAGVAHGAGIGIGLFLLLIASNEVGLVIKNPGPGLPVSLGNITAFPVMMSILGLAAIFGLERRRVPGGILLVIVAISALGLVFDPSVKFTGIFALPTLSAPGHTSLIGAMDIRGALSAAVLPSVLALVMTAVFDATGTIRAVAGQANQLDATGRIHNGGRALTADSVSSIFSAFFGGAPAAAYIESTVGVAAGARTGLAAVTVGALFLAVMFFSPLAGLVPSYATAPALMYVGLLMLSSVSRLHMDDLVDALSGLVCAVFIVLTCNIVTGIMLGFCTLVIGRIVSGEWRKLNIGTVAIAVALAAFYAGGWAI,failed
14,MIESIQELLQKEAQAVLNIPVTDAYEKAVELIVEQIHRKKGKLVTSGMGKAGQIAMNIATTFCSTGIPSVFLHPSEAQHGDLGILQENDLLLLISNSGKTREIVELTQLAHNLNPGLKFIVITGNPDSPLASESDVCLSTGHPAEVCTLGMTPTTSTTVMTVIGDILVVQTMKRTEFTIEEYSKRHHGGYLGEKSRKLCVK,not failed
15,MIESVLLLVSGLPGSGKSTLARGMAEALAWPCLDKDDFLEALFDARGIGDAAWRRALSREADSRFLAALQAAPRAVACSWWRHPRGEGGSGTPIGGLARPGRLVLELHCRCPAELAAARFARRVRHPGHLDAQRDPGALSLQLRRAERLGPLGLGQCLILDASVQTDLSGALAWTRDALAAGALADPPRHPLEHHHHHH,failed
16,MIFALHIMLRFVPNIVPLSIINKKTMTRIGLLSDTHAFWDDKYLKYFENCDEIWHAGDIGSVEVARKLSAFRPFRAVYGNIDGQDIRRLYPQTNRFTVDGAEVLIKHIGGYPGNYDPSIRGSLLVKPPQLFISGHSHILKVKYDKTLDMLHINPGAAGISGFHKVRTLVRFCIDNGEFKDLEVIELADKL,failed
17,MIFENRLALSAMAGVNNAEFCRKQKASLVILGGFNADRRALEAAEKAVKRGRKEFLFGIDGIEGEIKKLGRRKFAVNVRSSSLEGYLNVAELVAEFEGIIEINAHCRQPEFVEIGCGEWLLFNHERLVEIVSKTSRIAPTFVKIRGGHKLDYEKIARKLFDAGCLAIHVDAMIPGGGCDFSLIERISRIGNVIGNNSFVDIESGERIIMAGAKMASAARAVLRDENFFEKMLRSPLLSQPVELSCGRFRLEHHHHHH,not failed
18,MIFNTLARYFLKRYLMTTIWFVLGVSSIIYLADFSETARRMSGLPGYSVPAALGLTALRLPLILQQTVPFIALFVGMTTLISLNRRYELVVTRAAGISAWQFILPFVLGAVFIGILSVMVLNPIAAWGQNKSLAMEAGLRNDAGGGRQQEIIPWMRQSSGGKDTIIGAKSFEDNGTMLLDVVLIDVDKDGNIVSRKDAKSAKLEDGYWLLNGVSETRAGHVPVRQESMQISTNLRREFVQERMTQTETVAFFDLSHKIEVAKSFGLSSKALETQYHFLLSTPLLLVAMTLIAATVSLKFSRFAQSRSVILGGIVSGFVLYVVTVLVRAFGSGGVVPPTVAVWVPVIVALALGATILLHQEDG,failed
19,MIFRLGDFRFPDDPARLYPDTPDRPWVLEIGFGDGRFWPHYARTFPEPPNYLGVEISGVSLLKAHRRLKDAGLTNAVLTKLPAEVLVAQVIPHGSLDAIIVNFPDPWPKAGHEDHRLLRVPFFQVAASRLKPGGAALLTTDHDEYFEFACAQAEASGVMRVERVGPPPAALETKYAQKWRDLGLGVNHARFVPTRHDPVPNGTFAPYSEEDPAVPHAVLTLPADFSPQHFDKLTVRGKTWTVVLLDLYATLRRGGWVALAHVVEGDLTQEVLVGITEREDGTHLVRLAKFGGPIITPGVKAAVGAVTEWLEGQGAVVKHRGY,failed
20,MIFRQLFDPQSSTYTYLLADPASREALLIDPVFEQVRRDAALLDELGLRLVATVDTHVHADHVTGAWLLKQRTGSTIAISAASGAQGADRYLNDGDRCAFGARYLTVRATPGHTSGCISLVLDDESMAFTGDCLLIRGTGRTDFQQGDPRALYRAVHARLFTLPAACLLYPAHDYRGLTVTSVGEERRFNPRLGGDLSEDDFAGYMRNLGLAHPRQIDVAVPANLQCGVAANAPDALAAADWAPLVYTFAGFWEIDPQWLEDHLPAVQVVDVREPDEFAGPLGHLPGATPIPLGELAARTGELARDRPIVTVCRAGGRSAQATVILLKAGFDAVANLGGGMLRWRGEGRVVMDGRS,failed
21,MIFSFIFKVAVISSSGALAPGPLTAATAAIGVKRGWKGGFWVSVGHAAVELPLVILIATGVAVVLTHSSALSLLSVAGGVMLLSFAFLTAKSAFSKTEEKAESSANPFSTGVALSALNPFFIAWWAGVGAVLITEAISLWGYAGIAVLYLSHVWLDFAWLILLAHLTSMAIFSAKAYRALLVALAALVFLFGVDFLHYGLFSKHLLPI,failed
22,MIFYFSGTGNSKWIAEQIAKAQNEVLVFMPNAIRDGIEEFVLADDEKVGFVFPVYSWGPPLSVLRFLDWITLSNYHSQYVFFVCSCGDDTGLTEELFRRALSRKGMECNAGFSVAMPNNYVLLPGFDVDKKELEKKKLDEAVGRVEEINDSITGKKIGFHCNEGSFPWFKTKVLNPLFNRFMTSAKPFYATDDCIGCKRCERICPVGNVVMIGWRPVWGMDCTSCLACYHVCPKHAVQYGRRTKRKGQYLNPNVSISHEAAAQLEHHHHHH,not failed
